Measurements published in patent publication US20110288009A1, “LEPTIN AND LEPTIN ANALOG CONJUGATES AND USES THEREOF” (Angiochem Inc., priority 2008, published 2011).

B1: leptin: recombinant leptin used as control and comparator in Example 5 (protein, UniProt P41160 22-167, looked up)
Leptin: VPIQKVQDDTKTLIKTIVTRINDISHTQSVSAKQRVTGLDFIPGLHPILSLSKMDQTLAVYQQVLTSLPSQNVLQIANDLENLRDLLHLLAFSKSCSLPQTSGLQKPESLDGVLEASLYSTEVVALSRLQGSLQDILQQLDVSPEC

Legend:
[1] = in situ brain perfusion; threshold definition of efficient transport; cited from earlier work
[2] = in situ perfusion assay in lean and diet-induced obese (DIO) mice; type: in vivo; settings: DIO mice compared with lean mice; FIG. 4A
Excerpt: Blood Flow Metab. 20(2):381-386.

ob/ob mice = experiment: body weight of ob/ob mice treated with recombinant leptin; type: in vivo; settings: 0.1 mg/mouse or 0.25 mg/mouse daily, FIG. 21
Description: As a control, we tested the ability of recombinant leptin to reduce body weight in ob/ob mice using either 0.1 mg/mouse or 0.25 mg/mouse daily.

| Molecule | transport across the BBB relative to that of Angiopep-1 (250 nM) [1] [%] | transport across the BBB in DIO mice versus lean mice [2] | body weight (ob/ob mice) |
| --- | --- | --- | --- |
| T F F Y G G S R G K R N N F R T E E Y (TFFYGGSRGKRNNFRTEEY) [Angiopep-6] | 38.5 |  |  |
| B1 |  | reduced as compared to in lean mice | reduce body weight in these mice in a dose-dependent manner |
